{
  "source": "paper PMC6826206",
  "tested_on": "hcGAScat-WT (human)",
  "assay": "fluorescence anisotropy",
  "settings": "reference; EMSA: 25 mM Tris-HCl pH 7.5, 1 mM DTT, 100 ug/ml BSA, 1 mM MgCl2, 45 mM KCl, 37 C 10 min, 7% PAGE in TAE at 4 C; FA: 5-10 nM FAM-dsDNA, Hill fit, buffer not …",
  "data": [
    {"substance": "dsDNA24", "values": [
      {"measurement": "binding signal (relative to WT)", "result": 1}
    ]}
  ]
}
